Assays:
[1] = biological target: GST-SH3 (SH3 domain of cortactin fused to GST) (UniProt Q14247); experiment: GST pull-down with recombinant proteins, anti-MBP immunoblot, quantified; conditions: 10% of the input MBP protein loaded; n = 2; parent: est. 1.0; read off a plot
[2] = biological target: cortactin (CTTN), endogenous in MKN-74 cells (UniProt Q14247); experiment: GFP-trap pull-down from cell lysates, anti-cortactin immunoblot, quantified; conditions: MKN-74 HS1BP3 KO cells expressing EGFP-HS1BP3 WT or PRR3.1 mutant; n = 4; parent: est. 1.0; read off a plot
cortactin (CTTN), endogenous in MKN-74 cells, sequence (Q14247 whole entry, the tested form may be a part): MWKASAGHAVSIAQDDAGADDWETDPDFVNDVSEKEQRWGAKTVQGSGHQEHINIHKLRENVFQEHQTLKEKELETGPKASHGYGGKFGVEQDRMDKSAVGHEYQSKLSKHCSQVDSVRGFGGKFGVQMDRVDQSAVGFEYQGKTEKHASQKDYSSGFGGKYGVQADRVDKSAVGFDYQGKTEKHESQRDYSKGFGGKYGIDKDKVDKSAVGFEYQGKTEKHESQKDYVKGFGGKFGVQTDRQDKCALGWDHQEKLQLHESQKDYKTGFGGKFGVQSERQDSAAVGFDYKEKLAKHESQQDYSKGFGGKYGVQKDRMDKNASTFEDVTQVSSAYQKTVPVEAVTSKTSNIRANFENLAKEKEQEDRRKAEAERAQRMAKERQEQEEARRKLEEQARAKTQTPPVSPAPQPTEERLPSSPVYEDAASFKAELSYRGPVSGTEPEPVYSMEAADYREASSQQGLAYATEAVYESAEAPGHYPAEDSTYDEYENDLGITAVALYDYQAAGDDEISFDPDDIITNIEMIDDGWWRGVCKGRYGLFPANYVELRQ

[3] = biological target: GST-SH3 (SH3 domain of cortactin fused to GST) (UniProt Q14247); experiment: GST pull-down from cell lysates, anti-HS1BP3 immunoblot, quantified; conditions: lysates of MKN-74 HS1BP3 KO cells rescued with EGFP-HS1BP3 WT or PRR3.1 mutant; n = 2; parent: est. 8.5; read off a plot; scale: % of GST-SH3 interaction

GST-SH3 (SH3 domain of cortactin fused to GST), sequence (Q14247 492-550): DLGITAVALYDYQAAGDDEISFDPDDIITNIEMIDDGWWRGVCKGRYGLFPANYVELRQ
EGFP-HS1BP3 WT, sequence (Q53T59 whole entry, change not shown): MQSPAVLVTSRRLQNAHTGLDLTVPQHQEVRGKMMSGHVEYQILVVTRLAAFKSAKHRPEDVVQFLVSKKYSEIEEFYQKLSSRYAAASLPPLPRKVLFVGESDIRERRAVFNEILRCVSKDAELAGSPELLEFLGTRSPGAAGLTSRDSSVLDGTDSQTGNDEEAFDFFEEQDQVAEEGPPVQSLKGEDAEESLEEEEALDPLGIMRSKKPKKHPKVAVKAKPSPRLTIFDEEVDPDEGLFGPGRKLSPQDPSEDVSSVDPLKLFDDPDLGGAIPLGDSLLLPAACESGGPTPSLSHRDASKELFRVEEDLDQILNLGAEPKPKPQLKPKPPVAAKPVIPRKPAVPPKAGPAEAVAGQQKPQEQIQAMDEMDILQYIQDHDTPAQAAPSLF
full-length MBP-HS1BP3 (from UniProt Q53T59) PRR3.2 mut (prolines of PRR3.2 replaced with alanine), sequence (Q53T59 whole entry, change not shown): as above
full-length MBP-HS1BP3 (from UniProt Q53T59) PRR3.1 mut (prolines of PRR3.1 replaced with alanine), sequence (Q53T59 whole entry, change not shown): as above
full-length MBP-HS1BP3 (from UniProt Q53T59) PRR3.1+3.2 mut (prolines of PRR3.1 and PRR3.2 replaced with alanine), sequence (Q53T59 whole entry, change not shown): as above

Row | Substance | ratio to parent [1] | ratio to parent [2] | response [3]
1 | full-length MBP-HS1BP3 (from UniProt Q53T59) PRR3.1+3.2 mut (prolines of PRR3.1 and PRR3.2 replaced with alanine) | 0.51 |  | 
2 | full-length MBP-HS1BP3 (from UniProt Q53T59) PRR3.1 mut (prolines of PRR3.1 replaced with alanine) | 0.07 |  | 
3 | EGFP-HS1BP3 WT (from UniProt Q53T59) PRR3.1 mut (prolines of PRR3.1 replaced with alanine) |  | 0.82 | 0.3
4 | full-length MBP-HS1BP3 (from UniProt Q53T59) PRR3.2 mut (prolines of PRR3.2 replaced with alanine) | 0.31 |  | 
